Experimental data taken from US20040258695A1, “Transferrin binding peptides and uses thereof” (priority 2003, published 2004).

Legend:
[1] = system: TbpB N-lobe from M. catarrhalis 4223 (Mbp fusion truncations); assay: hTf C-lobe overlapping peptide library probed with HRP-labeled TbpB N-lobe truncations (chemiluminescence); format: binding, Moraxella catarrhalis; details: for Binding By Truncations, Segments Included 1: TbpB N-lobe segment 1; for Binding By Truncations, Segments Included 1-2: TbpB N-lobe segments 1-2
From the text: (§1) Generation of the overlapping peptide libraries representing human transferrin or the TbpB N-lobe regions from different bacteria was by the ‘SPOTSCAN’ method (Genosys Biotechnologies) (13). Essentially the library consisted of linear peptides 15 amino acids in length that were immobilized onto a cellulose membrane using 9-flurorenylmethoxycarbonyl (Fmoc) amino acid-based synthesis. One membrane was used to generate a library of the C-lobe of hTf consisting of ninety-six 15 amino acid peptides with an 11 amino acid overlap. The overlapping hTf peptide represented amino acids 285 to 679 of the intact hTf protein (accession # NP_001054). The first peptide library representing TbpB N-lobe from M. catarrhalis 4223 (accession #AAC34277) consisted of thirty-two 15 amino acid peptides with a 4 amino acid overlap and included N-lobe amino acids 12-421. The amino acid numbers refer to the amino acids in the predicted mature, processed protein (i.e. the N-terminal cysteine is amino acid 1). The second peptide library representing M. catarrhalis 4223 TbpB N-lobe peptides included amino acids 27-421 but with an 11 amino acid overlap.
TbpB truncations were generated by PCR-based cloning into the pMal expression system (New England BioLabs) as described previously (33). Essentially, amplified tbpB gene segments were subcloned into the pMal-c2 expression vector to generate an in frame fusion with the malE gene. Intact Moraxella catarrhalis 4223 TbpB consisted of amino acids 3-680 where 1 represents the N-terminal cysteine of the mature processed protein. Amino acids 1 and 2 from the mature protein were removed to ease cloning and subsequent expression. The N-terminal half of this gene consisted of amino acids 3 to 421. The truncated TbpB proteins were expressed as maltose binding protein fusions in E. coli ER2507 or ER2508 (for segments 1 and 1-2) and purified by amylose affinity chromatography.
(§2) Two different methods for labeling proteins for library screening were used. Iron loaded human Tf (Sigma) was labeled by chemical cross-linking (using 3-maleimidobenzoic acid-N-hydroxysuccinimide ester) to a beta-galactosidase (β-gal) reporter enzyme as described elsewhere (18). This was used as a probe for calorimetric detection on the composite peptide library. The second method involved conjugating the truncations of the N-lobe of TbpB from M. catarrhalis 4223 to horseradish peroxidase (HRP). HRP conjugated proteins can be detected by chemiluminescence, providing a much more sensitive screen. The truncations were conjugated to HRP using the Linx HRP Rapid Protein Conjugation Kit (Invitrogen). These labeled fusion proteins were then used as a probe for chemiluminescent detection.
For increased sensitivity, the TbpB N-lobe truncations from M. catarrhalis were conjugated to HRP for production and detection of chemiluminescent product. The membrane was rinsed with methanol and washed with 3 changes (5 minutes each) of TBS (0.137 M NaCl, 2.68 mM KCl, 50.4 mM Tris-Base, pH=8.0) on a rocking platform. The membrane was blocked by rocking at room temperature in blocking solution consisting of 20 ml of 0.5% Skim milk powder (BioRad) in TBS for 2.5 hours. The membrane was washed with T-TBS 3 times before being incubated with one of the HRP conjugated truncations diluted 1:1000 in skim milk blocking solution for 4 hours at room temperature. The membrane was then washed again 3 times with T-TBS, drained and incubated with 10 ml of Lumiglo mixture (Kirkegaard and Perry Laboratories) for 5 minutes. It was then exposed to X-omat Blue XB-1 X-Ray film (Kodak) for at least 30 seconds before developing. Positive peptides show up as dark spots on a light background.
To plan the truncation experiments, the N-lobe of M. catarrhalis was divided into seven segments with the identified binding peptides at their junctions. […]

human transferrin (hTf) = molecular target: T1, human transferrin (hTf) (Homo sapiens, UniProt P02787); assay: First M. catarrhalis TbpB N-lobe overlapping peptide library screened with β-galactosidase conjugated hTf (colorimetric); format: binding; details: 15 mer peptides with 4-amino acid overlap
T1 construct: purchased Sigma
From the text: as §1, §2
Binding experiments of hTf to the first peptide library was by the calorimetric method (Genosys Biotechnologies). Essentially hTf in blocking solution (10% Blocking buffer (Genosys Biotechnologies), 50 mg/ml sucrose, T-TBS, (0.137 M NaCl, 2.68 mM KCl, 50.4 mM Tris-Base, 0.05% Tween-20, pH8.0) was incubated with the membrane containing the peptide library for 4 hours at room temperature. The membrane was then washed sequentially in T-TBS and PBS before detection of bound beta-galactosidase using 5-bromo-4-chloro-3-indoyl-β-D-galactopyranoside (X-gal). Positive binding was determined by the development of a blue spot.
Initially, an overlapping peptide library representing the TbpB N-lobe of M. catarrhalis was prepared and probed for binding to labeled hTf. This library was comprised of thirty-two 15 mer peptides with a 4-amino acid overlap representing amino acids 12-421 of the mature M. catarrhalis TbpB. The library was screened for binding to β-galactosidase (β-gal) conjugated hTf (β-gal-hTf ) and a number of positive-binding peptides were detected with varying intensity of colored product.

[2] = molecular target: T2, human transferrin (hTf), iron loaded (human, UniProt P02787 20-698); assay: SPOT peptide library 1 of TbpB N-lobe probed with beta-gal-hTf, colorimetric
T2 construct: Used as a labelled probe (beta-gal conjugate for library 1, HRP conjugate for library 2 and the solid-phase assay); also called β-gal-hTf; HRP conjugated hTf

β-galactosidase alone = molecular target: T3, β-galactosidase alone (UniProt P00722 2-1024 = β-galactosidase); assay: SPOT peptide library 1 probed with beta-galactosidase alone, colorimetric
T3 construct: Negative control probe for library 1; also called beta-galactosidase

[3] = molecular target: T2, human transferrin (hTf), iron loaded; assay: TbpB overlapping peptide library probed with labelled hTf as in Example 1

T1 sequence (P02787 20-698): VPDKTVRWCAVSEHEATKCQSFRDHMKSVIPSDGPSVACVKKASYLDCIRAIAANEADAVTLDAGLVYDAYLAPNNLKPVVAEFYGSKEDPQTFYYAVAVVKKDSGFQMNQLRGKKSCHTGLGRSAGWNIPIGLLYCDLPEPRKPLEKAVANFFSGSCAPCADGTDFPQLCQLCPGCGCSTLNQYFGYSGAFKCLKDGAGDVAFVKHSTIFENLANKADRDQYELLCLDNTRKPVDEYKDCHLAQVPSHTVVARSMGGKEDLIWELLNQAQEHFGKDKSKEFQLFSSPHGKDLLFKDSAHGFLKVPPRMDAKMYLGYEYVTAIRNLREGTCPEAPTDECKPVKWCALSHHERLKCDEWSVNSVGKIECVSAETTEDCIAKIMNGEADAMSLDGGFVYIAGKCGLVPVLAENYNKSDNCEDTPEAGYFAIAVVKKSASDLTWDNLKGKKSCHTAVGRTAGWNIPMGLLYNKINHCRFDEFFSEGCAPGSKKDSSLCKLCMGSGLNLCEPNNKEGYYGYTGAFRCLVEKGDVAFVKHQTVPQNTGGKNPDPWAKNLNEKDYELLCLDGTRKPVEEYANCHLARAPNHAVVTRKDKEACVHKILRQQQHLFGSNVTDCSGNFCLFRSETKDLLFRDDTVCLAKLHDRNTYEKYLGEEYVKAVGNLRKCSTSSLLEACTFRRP
T2 sequence (P02787 20-698 limits assumed): as the sequence (P02787 20-698) above
T3 sequence (P00722 2-1024 limits assumed): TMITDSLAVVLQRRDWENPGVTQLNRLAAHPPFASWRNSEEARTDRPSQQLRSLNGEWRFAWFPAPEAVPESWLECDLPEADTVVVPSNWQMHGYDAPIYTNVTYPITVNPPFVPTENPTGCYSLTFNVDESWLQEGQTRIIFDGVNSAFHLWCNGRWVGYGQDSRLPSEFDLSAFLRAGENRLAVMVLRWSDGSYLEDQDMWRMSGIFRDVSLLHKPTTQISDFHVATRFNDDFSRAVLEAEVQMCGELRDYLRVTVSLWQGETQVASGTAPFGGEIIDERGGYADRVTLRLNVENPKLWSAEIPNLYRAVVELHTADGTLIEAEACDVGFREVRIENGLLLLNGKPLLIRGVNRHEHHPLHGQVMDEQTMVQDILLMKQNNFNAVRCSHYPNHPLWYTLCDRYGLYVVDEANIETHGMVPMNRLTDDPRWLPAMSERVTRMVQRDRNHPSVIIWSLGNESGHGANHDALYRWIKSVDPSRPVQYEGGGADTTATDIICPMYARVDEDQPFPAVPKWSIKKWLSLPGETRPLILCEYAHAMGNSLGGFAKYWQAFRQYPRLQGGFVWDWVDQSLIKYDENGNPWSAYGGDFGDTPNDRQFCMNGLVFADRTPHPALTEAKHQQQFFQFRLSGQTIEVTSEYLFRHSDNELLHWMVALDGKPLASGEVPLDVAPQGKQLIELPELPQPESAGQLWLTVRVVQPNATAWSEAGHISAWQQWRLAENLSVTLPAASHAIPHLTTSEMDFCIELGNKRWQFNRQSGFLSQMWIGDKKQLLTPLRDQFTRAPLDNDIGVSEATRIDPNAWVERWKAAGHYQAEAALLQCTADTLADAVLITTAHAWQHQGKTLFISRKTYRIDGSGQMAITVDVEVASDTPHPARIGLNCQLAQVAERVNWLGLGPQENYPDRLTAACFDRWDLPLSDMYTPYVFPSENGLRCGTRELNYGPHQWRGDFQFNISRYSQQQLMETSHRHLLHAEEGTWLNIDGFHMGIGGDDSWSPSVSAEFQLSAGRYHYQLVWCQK

gsnvtdcsgnfclfr [Peptide 45]
Binding By Truncations, Segments Included 1 ([1]; listed as 18 (brown)): loss of binding

fmtdvanrrnrfsev (FMTDVANRRNRFSEV; M. catarrhalis) [Peptide 83]
binding to β-gal-hTf, intensity of colored product (human transferrin (hTf)): moderately positive

nipmgllynkinhcr (NIPMGLLYNKINHCR; listed as Homo sapiens) [Peptide 41, hTf C-lobe library peptide, domain 2 (Blue)]
Binding By Truncations, Segments Included 1-4 ([1]; TbpB N-lobe segments 1-4, listed as 13 (Blue)): lost reactivity

kksasdltwdnlkgk (KKSASDLTWDNLKGK; listed as Homo sapiens) [Peptide 40, hTf C-lobe library peptide, domain 2 (Green)]
Binding By Truncations, Segments Included 1-3 ([1]; TbpB N-lobe segments 1-3, listed as 12 (green)): lost reactivity

chlarapnhavvtrk [Peptide 44]
Binding By Truncations, Segments Included 1-5 ([1]; TbpB N-lobe segments 1-5, listed as 16 (yellow)): lost reactivity

agwyygasskdeynr (AGWYYGASSKDEYNR; M. catarrhalis) [Peptide 85]
binding to β-gal-hTf, intensity of colored product (human transferrin (hTf)): weakly positive

gyygytgafrclvek (GYYGYTGAFRCLVEK; listed as Homo sapiens) [Peptide 43, hTf C-lobe library peptide, domain 2 (Red)]
Binding By Truncations, Segments Included 1-2 ([1]; listed as 15 (red)): lost reactivity

lcmgsglnlcepnnk (LCMGSGLNLCEPNNK; listed as Homo sapiens) [Peptide 42, hTf C-lobe library peptide, domain 2 (Red)]
Binding By Truncations, Segments Included 1-2 ([1]; listed as 14 (red)): lost reactivity

fsnlqdrhkgnvtkt (FSNLQDRHKGNVTKT; M. catarrhalis) [Peptide 90]
binding to β-gal-hTf, intensity of colored product (human transferrin (hTf)): strongly positive

gpvggvfyngtttak (GPVGGVFYNGTTTAK; M. catarrhalis) [Peptide 80]
binding to β-gal-hTf, intensity of colored product (human transferrin (hTf)): strongly positive

kylgeeyvkavgnlr (KYLGEEYVKAVGNLR; listed as Homo sapiens) [Peptide 47, hTf C-lobe library peptide, tail (Cyan)]
Binding By Truncations, Segments Included 1-6 ([1]; TbpB N-lobe segments 1-6, listed as 20 (Cyan)): bound all of the peptides except the one

danihgnrfrgsata (DANIHGNRFRGSATA; M. catarrhalis) [Peptide 92]
binding to β-gal-hTf, intensity of colored product (human transferrin (hTf)): strongly positive

mgygmalskinlhnr (MGYGMALSKINLHNR; M. catarrhalis) [Peptide 65]
binding to β-gal-hTf, intensity of colored product (human transferrin (hTf)): moderately positive

tdcsgnfclfrsetk [Peptide 46]
Binding By Truncations, Segments Included 1 ([1]; listed as 19 (brown)): loss of binding

B1: M. catarrhalis TbpB N-lobe peptide fmtdvanrrnrfsev (peptide)
peptide: FMTDVANRRNRFSEV
notes: SPOT peptide immobilised on cellulose membrane; also called spot #83
binding result [2]: binds
binding result (β-galactosidase alone): no binding

B2: N. meningitidis TbpB peptide FYKHAASEKDFSNKK (peptide)
peptide: FYKHAASEKDFSNKK
notes: library peptide
binding result [3]: binds

B3: M. catarrhalis TbpB N-lobe peptide gpvggvfyngtttak (peptide)
peptide: GPVGGVFYNGTTTAK
notes: SPOT peptide immobilised on cellulose membrane; also called spot #80
binding result [2]: binds
binding result (β-galactosidase alone): no binding

B4: M. catarrhalis TbpB N-lobe peptide mgygmalskinlhnr (peptide)
peptide: MGYGMALSKINLHNR
notes: SPOT peptide immobilised on cellulose membrane; also called spot #65
binding result [2]: binds
binding result (β-galactosidase alone): no binding

B5: M. catarrhalis TbpB N-lobe peptide fsnlqdrhkgnvtkt (peptide)
peptide: FSNLQDRHKGNVTKT
notes: SPOT peptide immobilised on cellulose membrane; also called spot #90
binding result [2]: binds
binding result (β-galactosidase alone): no binding

B6: N. meningitidis TbpB peptide VIYKGVWHFVTDTKK (peptide)
peptide: VIYKGVWHFVTDTKK
notes: library peptide
binding result [3]: binds

B7: N. meningitidis TbpB peptide PSRQLPASGKVIYKG (peptide)
peptide: PSRQLPASGKVIYKG
notes: library peptide
binding result [3]: binds

B8: M. catarrhalis TbpB N-lobe peptide agwyygasskdeynr (peptide)
peptide: AGWYYGASSKDEYNR
notes: SPOT peptide immobilised on cellulose membrane; also called spot #85
binding result [2]: binds
binding result (β-galactosidase alone): no binding

B9: M. catarrhalis TbpB N-lobe peptide danihgnrfrgsata (peptide)
peptide: DANIHGNRFRGSATA
notes: SPOT peptide immobilised on cellulose membrane; also called spot #92
binding result [2]: binds
binding result (β-galactosidase alone): no binding
